In the supplement of paper PMC12042874 one finds amyloid nucleation score data, which are given here for 130 substances.

This data set in a line: amyloid nucleation score (Sup35N fusion, yeast selection) (log enrichment); library NNK3; higher = more nucleation; inactive = no reads after selection. The essentials:
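Psi-negative yeast expressed Sup35N fused to peptides of 20 random codons. They were induced 24 hours with 100 μM copper sulfate, grown 7 days at 30°C without adenine and uracil, and their plasmid inserts from input and output were Illumina-sequenced. The nucleation score is the DiMSum log enrichment of output over input reads, centred on the mode score of non-aggregating sequences. Sequences with under 100 input reads were excluded.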

± gives the uncertainty stated by the source.

In turn, NYFYGYQACVVHGISFTMGQ had an amyloid nucleation score of 0.956 ± 0.19.

With YRWGRVYPSAFSLCKLRYKL, the amyloid nucleation score entry was “inactive”.

On to FNSGCYT, for which the amyloid nucleation score entry was “inactive”.

Take TCIQYSKFLRA: the amyloid nucleation score entry is “inactive”.

In the case of PTTFNVFLGLWCVGTYCTWL, the amyloid nucleation score was 0.997 ± 0.24.

On to WHTAKGTWSTGRQEDTGQSR, for which the amyloid nucleation score entry was “inactive”.

For YQQSIVHVRRFTYRRAPVVA, the amyloid nucleation score was -0.46 ± 1.9.

Take WAVIKLMRSERTVGVWGSNT: the amyloid nucleation score result is “inactive”.

Turning to TVLYLNDDIATYHRMLVFRV, the amyloid nucleation score entry was “inactive”.

On to AFTHVTSVMTVQDSLGLCLL, for which the amyloid nucleation score result was “inactive”.

With GVLLNTSELGSNGMDSKTLD, the amyloid nucleation score result was “inactive”.

Regarding WSRHSTMGTRPEKQVLWPAG, the amyloid nucleation score result is “inactive”.

In the case of GSNQMPDPPHWPRDYNAEKR, the amyloid nucleation score entry was “inactive”.

As for TRSCNLNTFKVDASGPPWHG, the amyloid nucleation score entry is “inactive”.

As for PQDQDDVKVLSRGVRYVWGH, the amyloid nucleation score entry is “inactive”.

With LSDYEDIAISFIKYRCSSLN, the amyloid nucleation score turned out to be 1.42 ± 0.11.

For the substance RCSYLMRLYISSFMY, the amyloid nucleation score entry is “inactive”.

YFEVDNLRRIQRRLICLGPE registered an amyloid nucleation score of 0.891 ± 0.27.

On to CLTGRLLKSSVIRWRKYMNV, for which the amyloid nucleation score result was “inactive”.

Regarding VPDRCLD, the amyloid nucleation score entry is “inactive”.

Consider RSPEFCMS, for which the amyloid nucleation score result was “inactive”.

With IISVIVTVYR, the amyloid nucleation score entry was “inactive”.

Turning to LCLCYNLMSLLLLHLCREGQ, the amyloid nucleation score entry is “inactive”.

CCITFLLSDLAMSYYVRYNR returned an amyloid nucleation score of 0.484 ± 0.12.

Consider IKSCGVNNIAFLQVCHRWCS, for which the amyloid nucleation score was determined as 1.6 ± 0.082.

As for HNRLEAMFY, the amyloid nucleation score result is “inactive”.

With FMSSVM, the amyloid nucleation score entry was “inactive”.

YVLLVWDCRLFSVRISFRSV: the amyloid nucleation score entry was “inactive”.

For the substance FNVGFLKWCFSMVGQGVDLH, the amyloid nucleation score entry was “inactive”.

Turning to DKALS, the amyloid nucleation score result is “inactive”.

As for LSMHVVFVYIGFPHMDFDGS, the amyloid nucleation score entry was “inactive”.

With YCGNLYRDFLGQQPF, the amyloid nucleation score result was “inactive”.

Take RSMNLRSKLMSACGGFMS: the amyloid nucleation score entry was “inactive”.

On to SAYVLDGYMEISQILVIWSL, for which the amyloid nucleation score entry is “inactive”.

Regarding IEDQHLHVVLTGWGSKLSGH, the amyloid nucleation score entry was “inactive”.

For YLTCDKTNVNGFMI, the amyloid nucleation score entry is “inactive”.

For the substance FVMTIM, the amyloid nucleation score entry was “inactive”.

With LRAKTRHSVLNCDRIVEPGG, the amyloid nucleation score amounted to 1.49 ± 0.13.

For HLIST, the amyloid nucleation score result was “inactive”.

Turning to IWSLDNARNYSIVRSVWLG, the amyloid nucleation score entry was “inactive”.

As to YKEMVRRNLSRANKFDCGSM, the amyloid nucleation score entry was “inactive”.

Substance YHLSQAYDMKVYILNRCGLF showed an amyloid nucleation score of 0.506 ± 0.38.

For the substance LSVLFCLDGK, the amyloid nucleation score result was “inactive”.

As for SYFSYPCCCCVVARFLNYVC, the amyloid nucleation score result was “inactive”.

As to INWGWLPCTRTSTIGSRGRS, the amyloid nucleation score entry was “inactive”.

For the substance DCFFRSVDLADSR, the amyloid nucleation score entry is “inactive”.

Take RHGFALRLVHSSL: the amyloid nucleation score entry is “inactive”.

As for KCVWWCTNWLNVKWVYSTRC, the amyloid nucleation score entry is “inactive”.

As to LRVCISGYSN, the amyloid nucleation score entry is “inactive”.

On to SGVYLSGSSLVCNTFFGTNQ, for which the amyloid nucleation score is 1.78 ± 0.088.

HGKVGKRFRLGQKAYVSGLW: the amyloid nucleation score entry was “inactive”.

For the substance RYILRSL, the amyloid nucleation score result is “inactive”.

Turning to TSLDCYLMRLFLGWEALKVW, the amyloid nucleation score entry is “inactive”.

As for WDIMSRYLCMYIGYTARRCM, the amyloid nucleation score result is “inactive”.

For FWLGGVDLAPKVGKQTMNLA, the amyloid nucleation score result is “inactive”.

For the substance METCPLCIICLYGKWIRFSR, the amyloid nucleation score entry was “inactive”.

Turning to LCWPGTVDWFQGWRKAG, the amyloid nucleation score entry was “inactive”.

As to EGSHVPIILGYREFCVFILT, the amyloid nucleation score result is “inactive”.

For the substance TKYAHPPTQDDPLCGIRRSV, the amyloid nucleation score entry was “inactive”.

As for SGNTNDSSMHHQNLFFSA, the amyloid nucleation score result was “inactive”.

Consider IRSVVIRVSFYFTWF, for which the amyloid nucleation score entry was “inactive”.

VCLLSS: the amyloid nucleation score entry was “inactive”.

For the substance RRGVRPNATMSA, the amyloid nucleation score entry is “inactive”.

Substance HRSNCDYDIQYVYIFFS gave an amyloid nucleation score of 2.36 ± 0.063.

For VEGATWHTWSCVNHVVVKGF, the amyloid nucleation score entry was “inactive”.

As for FSRGVCTSYLSVRYGLCSTE, the amyloid nucleation score result is “inactive”.

As for SSPSWFTYLVKQVALRSVTQ, the amyloid nucleation score is 1.55 ± 0.1.

As to FRAYWLYISALAHQIITMLK, the amyloid nucleation score result was “inactive”.

As for GWNSFPRPLYPRWDNSESAS, the amyloid nucleation score entry is “inactive”.

The substance IVCRISTTCQWCRINVSGGS registered an amyloid nucleation score of 1.12 ± 0.1.

Take NTIDYHYKVSCSHGYSLQSY: the amyloid nucleation score result was “inactive”.

Consider NSGYRWEKSLSWMALLGYGC, for which the amyloid nucleation score was -0.788 ± 1.1.

Turning to YFFIPVKW, the amyloid nucleation score entry was “inactive”.

DLVRAMRCHSVGDVGYASSS: the amyloid nucleation score result was “inactive”.

Regarding GSVTEGFVGLG, the amyloid nucleation score entry was “inactive”.

On to HLSWNSLTDRNVLC, for which the amyloid nucleation score entry was “inactive”.

For LGAWVGVFMLKQ, the amyloid nucleation score entry was “inactive”.

For IALSGRYRDSAACRDSCHVA, the amyloid nucleation score entry is “inactive”.

Take SESCFDMMPCLVGLKSERGQ: the amyloid nucleation score result was “inactive”.

TFIHRHINNTSQLPGSFMKL: the amyloid nucleation score result was “inactive”.

As for DVLLVIKVDYQVGLARVSRL, the amyloid nucleation score result was “inactive”.

Turning to RSTFRRLLRCFGFWRRWSCI, the amyloid nucleation score result is “inactive”.

For the substance GVFGESS, the amyloid nucleation score entry is “inactive”.

Consider RKSIGSLG, for which the amyloid nucleation score entry is “inactive”.

With RRYDNYRYSHRMFFKRFQAV, the amyloid nucleation score result is “inactive”.

As for GWMSATVLFQLSE, the amyloid nucleation score entry is “inactive”.

As for SMVGVFQKVFKTITTTYADV, the amyloid nucleation score result was “inactive”.

Turning to QTRVTVYSWVPRDYFSQHED, the amyloid nucleation score result is “inactive”.

On to LTTQSGLMAGRKKFWDAELG, for which the amyloid nucleation score is 0.902 ± 0.21.

As for NVSFCDDASARANVYHLGKS, the amyloid nucleation score result was “inactive”.

Consider LDAFRRLLEGASRTKCTF, for which the amyloid nucleation score entry was “inactive”.

Take SLFCRWLVVYPSMLRVKRVR: the amyloid nucleation score result is “inactive”.

RRVTRSSKAYRVGVSWDGIG showed an amyloid nucleation score of 0.047 ± 0.33.

Turning to FYILCHHKDCNIGHPILGGK, the amyloid nucleation score entry is “inactive”.

For YGFRMRRLVARLESRQWFWG, the amyloid nucleation score entry was “inactive”.

Consider FELVIYQIVRIIVRSLADIS, for which the amyloid nucleation score entry was “inactive”.

Consider VFYMRSETKLFL, for which the amyloid nucleation score is -0.391 ± 0.8.

Turning to RMFNSYNQFLLVAMLPYPLR, the amyloid nucleation score turned out to be 2.62 ± 0.071.

For DYSHLCSNIQGIAFVVVIQN, the amyloid nucleation score entry was “inactive”.

Turning to LVNDKMLCNYHAMMRLFFFM, the amyloid nucleation score entry was “inactive”.

For the substance VVGSDGMFTCSCLREVR, the amyloid nucleation score result is “inactive”.

In the case of APFRMLAFGMWEALMAGSNS, the amyloid nucleation score entry is “inactive”.

With CARRNLAVNYKYWFVGEHYI, the amyloid nucleation score entry is “inactive”.

As to WDEIIY, the amyloid nucleation score entry is “inactive”.

As for SFNFSRHLVLF, the amyloid nucleation score result is “inactive”.

For the substance KINVD, the amyloid nucleation score result is “inactive”.

Turning to VMCLRRMSFQCMQSQMEALA, the amyloid nucleation score result was “inactive”.

As for YTTKRL, the amyloid nucleation score entry was “inactive”.

FTYVNSHECWLVKDMVAYFL came in with an amyloid nucleation score of 3 ± 0.073.

Regarding CMMPLNATRYVYLPNAAHSL, the amyloid nucleation score entry was “inactive”.

Consider MRWCNQDQL, for which the amyloid nucleation score entry was “inactive”.

Turning to AVCCCGRNIHMRSCRPGTTL, the amyloid nucleation score was 0.531 ± 0.16.

The substance NMYWSISDRFRIV showed an amyloid nucleation score of 0.424 ± 0.71.

For the substance PIWTHFRGPCGVEAIRETRV, the amyloid nucleation score entry is “inactive”.

KNFQPKTS showed an amyloid nucleation score of 0.082 ± 0.45.

Consider LTVLDQSCSIYYCTSLHKS, for which the amyloid nucleation score turned out to be 1.92 ± 0.087.

For the substance CAQARSRFTYQSAHR, the amyloid nucleation score entry was “inactive”.

YRPGW: the amyloid nucleation score entry is “inactive”.

Take VFGMKSRDIRIS: the amyloid nucleation score result is “inactive”.

With LIAMICSLGTYFLIVAFELI, the amyloid nucleation score result was “inactive”.

On to YNCFDDNTYPYSANGSRNSL, for which the amyloid nucleation score result is “inactive”.

With IVLCMVFCWSRPWEVIIFKV, the amyloid nucleation score result was “inactive”.

As for GGVRPVKYGSVWVYRFWDQC, the amyloid nucleation score result is “inactive”.

On to FDLVFLLYMGMTQ, for which the amyloid nucleation score entry is “inactive”.

SFNLNCDDQSRNYRADVSDS: the amyloid nucleation score was found to be 1.16 ± 0.099.

For the substance ISESKLMLTRWDGVFVTIWD, the amyloid nucleation score entry is “inactive”.

In the case of NSGWWRVKHNTSQDGSKRSG, the amyloid nucleation score result is “inactive”.

In the case of TRGSPRGRNEKSGYTSVMRG, the amyloid nucleation score entry is “inactive”.

With IPTSLCGGAQLGRTRVLFLW, the amyloid nucleation score result is “inactive”.

Consider TLNIDGFIVFRTEVKGKLSY, for which the amyloid nucleation score result is “inactive”.
